From the nanobody polyreactivity screen of Harvey et al. (2022)

Assay: yeast display, Sf9 membrane polyspecificity reagent, FACS + sequencing; frameworks hold sequencing errors
In short: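 In a synthetic yeast display library (Saccharomyces cerevisiae BJ5465), nanobody expression was induced with galactose for 36–48 hours. FACS gates were set low and high (top ~1%) using anti-HA fluorescence for expression and streptavidin fluorescence for binding of the Sf9 membrane reagent. Each polyreactivity label is drawn from the gate of origin.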

Sequence	polyreactivity (PSR sort gate)
QVQLVESGGGLDLAGGSLRLSCASSGLTFFYYAMAWYRQAPGKEMEFVASISRSGGSTYYADSVKGRFTISRDNAKNTVSLQKNSLKPEDTAVYYCAAVERRTPGYGYDYWGQGTQVTVSS	high polyreactivity
QVQLVESGGGLVQAGGSLRLSCAASGFTFTTYAMGWYRQAPRQVRELVAAITRRGGSTYYADSVKGRFTISRDNEKNTVYLQMNSLKPEDTAVYYCAAGGGWGLDFWGQGTQVTVSS	high polyreactivity
QVQLVESGGGLVQAGGSLRLSCAASGSTFSGYAMGWYRQAPGKERELVAAISTSGGRTYYADSVKGRFTISRDNAKNTVYLQMNSLKPEDTAVYYCAAQYRGLYKGLGSWGQGTQVTVSS	high polyreactivity
QVQLVESGGGLVQAGGSLRLSCAASGSILGTYAMGWYRQAPGKERDLVAAISSSGRTSYADSVKGRFTISRDNAKNTVYLQMNSLKPEDTAVYFCNKVTSYYVFYTPYYSWGQGTQVTVSS	low polyreactivity
QVQLVESGGGLVQAGGSLRLSCAASGSIFRVYAMGWYRQAPGKERELVAAITSRGGSTYYADSVKGRFTISRDNAKNTVYLQMNSLKQEDTAVYYCAAAYPYRTGRGYYWGQGTQVTVSS	high polyreactivity
QVQLVESGGGLVQAGGSLRLTCAASGNTFSPNAMGWYRHAPGKERELVAAIDSRDGITYYADSVKGRFTISRDNAKNTVYLQMNSLKPEDTAVYYCAADEWYGESNFWGQGTQVTVSS	low polyreactivity
QVQLVESGGGLVQAGGSLRLSCASSGSTFPGNAMGWYRQAPGKERELVAAIRDRGTSTYYADSVKGRFTISRDNAKNNVYLQMNSLKPEDTAVYYCAAASRVAKGRWRLYDDWGQGTQVTVSS	high polyreactivity
QVQLVESGGGLVQAGGCLRLSCAASGSTFPRNAMGWYRQAPGKERELVATITSSGGGTYYADSVKGRFTISRDNAKNTVYLQMNILKPEDTAVYYCNADGPAGDAFDYCGQGTQVTVSS	low polyreactivity
QVQLVESGGGLVQAGASLRVSCAASGSTFNYNAMGWYRQAPGKERELVAAITYSGSSTYYSDSVKGRFTISRDNAKNTVYLQMNSLKPEYTAVYYCAADYWFRYGTYEYWGQGTQVSVSS	high polyreactivity
QVQLVESGGGLVQAGGSLRLSCAASGSTFEANAMGWYRQAPGNERELVAVITWTGGSTYYADSVKGRFTISRDNAKNTVYLQMNSLKPEDTAVYYCAADGVVPGRFFWPAHEYDYWGQGTQVTVSS	low polyreactivity
QVQLQESGGGLMQAGGNLRLSCAASGYISTHYDMDWYRQAPGKERELVARIDDGAITNYADSVKGRFTISRDNAKKTVYLQMNSLKPEDTAVYYCAVYYGDEYYHDYWGQGTQVTVSS	low polyreactivity
QVQLVESGGGLFQAGGSLSLSCAASGRIYNPNALGWYRQAPGKERELVAAITSGDSTNYADSVKGRFTISRDNAKNTVYLEMNSLKPEDTAVYYCAADWTYPYNSWGQGTQVTVSS	low polyreactivity
QVQLVESGGGLVQAGGRLRLSCAASGSIFGVYDMGWYRQAPGKERELVAVINSNGGSTYYADSVKGRFTISRDNAKNTVYLQMNSLKPEDTAVYYCAAERATVKFGYWGQGTQVTVSS	low polyreactivity
QVQLVESGGGLVQAGGSLRLSCAASGSTMLDYAMGWYRQAPGKERELVAAISWSGGSTRYADSVKGRFTISRDNAKNTVFLQMNSLKPEDTAVYYCAATGFSYRYFQTRDYWGQGTQVTVSS	high polyreactivity
QVQLVESGGGLVQAGGSLRLSCAASGIIFYDYAMGWYRQAPGKERELVAAITSSGGSTYYADSVKGRFTISRDNAKNTVYLQMNRLKPEDTAVYYCAAATRGSGRRYDYWGQGTQVTVSS	high polyreactivity
QVQLVESCGGKVQAGGSLRLSCAASGRIFWYYAMVWYRQAPGKERELVAAIDRTRVRTSYADSVKGRFTISRDNAKNTVYLQMNSLKPEDTAVYYCAADLVYGHYVTYWNSYVYWGQGTEVTVSS	low polyreactivity
QVQLVESGGGLVQAGGSLRLSCAASGFTFNRYVMGWYRQAPGKERELVAAIDSGDSTYYADSVKGRFTISRDNAKNTVYLQMNSLKPEDTAVFYCAAEFKSKFFSDIFDNDYDYWGQGTQVSVSS	high polyreactivity
QVQLVESGGGLVQAGGSLRLSCAASGIIFRPYAMGWYRQAPGKERELVAAITWSGTSTYYADSVKGRFTISRDNAKNTVYLQMNSLKPEDTAVYYCAATWSYGVSWYEYWGQGTQVTVSS	high polyreactivity
QVQLVESGGGLVQAGGSLRLSCAASGITFKYYAMGWYRQAPGKERELVADISWGGGSTYYADSVKGRFTISRDNAKNTVYLQMNSLKPEDTAVYYCAAEYSGSYYSFWMVYWGLGTQVTVSS	low polyreactivity
QVQLVESGGGLVQAGGSLRLSCAASGSIFAVYAMGWYRQAPGKERELVAVITRSGGSTYYADSVKGRFTISRDNAKNTVYLQMISLKPEDTAVYYCAARTGYGYTRYEYWGQGTQVTVSS	high polyreactivity
QVQLVESGGGLVQAGGSLRLSCAASGSTFYYYAMGWYRQAPGKERELVARITWIGGSTYYADSVKGRFTISRDNAKNTVYLQMNSLKPEDTAVYYCAAGWYRRIYGGWGYDYWGQGTQVTVSS	low polyreactivity
QVQLLETGGGLVQAGRSHRLSCAASGLTFEDYAMGWYRQAPGKESELVAAITYSGGSTYYADSVKGRFTISRDNAKNSVYLQMMSLKPEDTAVSVCAAVSTLRPSWKRYYYWGQGNQVTVSS	high polyreactivity

Sequence	polyreactivity (PSR sort gate)
QVQLVESGGGLVQAGGSLRLRCAASGSTFSEYAMGWYRQAPGKERELVAAISYNGGSTYYADSVKGRFTISRDNAKNTVYLQMNSLKPEDTAVYYCNAKLFYDRYDYWGQGTQVTVSS	low polyreactivity
QVQRVESGGGLVQAGRSLRLSCAATGITFWVYAMGWYRQAPGKERELVAAISRRGGSTSYADSVKGRFTISRDNAKNTVYLQMNSLKPEDTAVYYCAATTYTHPYGYWGQGTQVTVSS	high polyreactivity
QVQLVESGGGLVQAGGSLRLSCAASGFTFRAYTMGWYRQAPGKERELVAAITYSGGRTYYADSVKGRFTISRDNAKNTVYLQMNSLKPEDTAVYYCATRGWALSEYYYWGQGTQVTVSS	high polyreactivity
QVQLVESGGGLVQAGGSLRLSCAASGSTFNKYAMGWYRQAPGKERELVAAISSSGGSTYYADSVKGRFTISRDNAKNTVYLQMNSLKPEDTAVYYCNARRTYSVPARRYYYWGQGTQVTVSS	high polyreactivity
QVQLVESGGGLVQAGGSLRLSCAASGFIFKANAMGWYRQAPGKERELVAVITRRGGSTYYADSVKGRFTISRDNAKNTVYLQMNSLKPEDTAVYYCAAKSYTYGYNYWGQGTQVTVSS	high polyreactivity
QVQLVESGGGLVQAGGSLRLSCAASGFTFDGNAMGWYRQAPGKERELVATITSGGNTKYADSVKGRFTISRDNAKNTVYFQMNSLKPEDTAVYYCAAAQYNYRRFNYWGQGTQVTVSS	low polyreactivity
QVQLVESGGGLVQAGGSLRLSCAASGRIFNLYAMGWYRQAPGKERELVAAINWSGDRTYYADSVKGRFTISRDNAKNTVYLQMYSLKPEDTAVYYCNADGLEIERYAYWYVFLGYDYWGQGTQVTVSS	low polyreactivity
QVQLVESGGGLVQAGGSLRLSCAASGIFTYTMGWYRQAPGKERELVAAITNGSTYYADSVKGRFTISRDNAKNTVYLQMNSLKPEDTAVYYCAADRSSAYRWRSAGYYKYDYWGQGTQVTVSS	low polyreactivity
QVQLVESGGGLVQAGGSLRLSCASSGFTFGVYAMGWYRTAPGKERELVAGITRGGSTNYADSVKGRFTISRDNAKNTVYLQMNSLKPEDTAVYYCAKVSYGYLRSWGRYTRGDYWGQGTQVTVSS	high polyreactivity
QVQLVDSGGGLVQAGGSLRLICAASGSIFIDKAMGWYRQAPGKERELVAAISWSGGRTYYADSVKGRFTISRDNAKNTVYLQMNSLKPEDTAVYYCAVDFRHPYDYDYWGQGTQVTVSS	high polyreactivity
QVQLVESGAGLVQAGGSLRLSCAASGGTFWKYAMGWYRQAPGKESELVAAITWSGSSTYYADSVKGRFTISRDNAKNTVFLLMKSLKPEDTAVYYCARYHVGPSYRYGYWGQGTQVTVSS	high polyreactivity
QVQLVESGGGLVQAGGSLRLSCAASGRTFRKYAMGWYRQAPGKERELVAAISWSGGSTYYANSVKGRFTISRDNAKNTVYLQMNSLKPEDTAVYYCAAVPVHTGSLYWGFTTGYDYWGQGTKVTVSS	low polyreactivity
QLQLVESGGGLVQAGGSLRLSCAHSGRTFYVNAIGWSRQAPRKERELVATITDRGGRSYYADSVKGRFTISRDNAKNSVYLQMTSLKPEDTAVYYCAATRWYEVDYWGQGTQVTVSS	low polyreactivity
QVQLVESGGGLVQAGGSLRLSCAASGFIFYHYAMGWYRQAPGKERELVAAISWNGGRTYYADSVKGRFTISRDNAKNTVYLQMNSLKPEDTAVYYCAAPVLTSDYTLDSYYWGQGTQVTVSS	high polyreactivity
QVQLVESGGGLVQAGGSLRLSCAASGSIFGVYAMGWYRQAPGKERELVAAINSGGTTYADSVKGRFTISRDNAKNTVYLQMNSLKPEDTAVYYCNADRWGPEDPYRVRDRFDYWGQGTQVTVSS	low polyreactivity
QVQLVESGGGLVQAGCSLRLSCAASGSIFESYAMGWSRQAPGNERELVAAITSSGDSTYYADSVKGRFTITRDNAKNTVYIQMNSLKPEDTAVYYCANRVPTYISTADWGSRYDYWGQGTQVTVSS	low polyreactivity
QVQLVESGGGLVQAGGSLRLSCAASGLTFYVYTMGWYSQAPGKEWELVAAISSGTTTHYADSVKGRFTISRDNAMNTVYLQMNSLKPEDTAVYYCGADLYHYSRDGYWGQGTQVTVSS	low polyreactivity
QVQLVESGGGLVQAGGSLRLSCAASGSIFVPYAMGWYRQAPGKERELDAVITSGGSTYYADSVKGRFSISRDNAKNTVYLQMNSLKPEDTAVYYCNADLYYVWSTLSQFDYWGQGTQVTVSS	low polyreactivity
QVQLVESGGGLVQAGGSLRLSCAASGLIFQVYDMGWYRQAPGKERELVAAISSGSNTNYADSVKGRFTISRDNAKNTVYLQMNSLKPEDTAVYYCAASWGYGALTPDMGYWGQGTQVTVSS	low polyreactivity
QVQLVESGGGLVQAGGSLRLSCAASGSTFDVNAMGWYRPAPGKERELVAAISFSGGSTYYADSVKGRFTISRDNAKNTVYLQMNSLKPEDTAVYYCAAEEWRSYYEEYDYWGQGTQVTVSS	low polyreactivity
QVQLVESGGGLVQAGGSLRLSCAASGFTFVYYVMGWYRQAPGKERELVAAINAGGGSTYYADSVKGRFTISRDNAKNTVYLQMNSLKPEDTAVYYCNARVRVRLGRNWSSYYYWGQGTQVTVSS	high polyreactivity
